Test [1] concerns the target T1, BoNT/A1 holotoxin (Hall hyper) (Clostridium botulinum, UniProt P0DPI0 2-1296). As to the kind of experiment: KinExA, IgG. (In general: In KinExA the mixture passes briefly over coated beads that capture the unbound partner.)
Test [2] addresses T2, BoNT/A2 holotoxin (FRI-H1A2) (Clostridium botulinum, UniProt Q45894 2-1296). As to the kind of experiment: KinExA, IgG.
The target in test [3] is BoNT/A light chain (recombinant) (Clostridium botulinum, UniProt P0DPI0 1-448). As to the kind of experiment: KinExA, IgG.
Test [4] concerns the target T3, BoNT/F1 (proteolytic BoNT/F) (Clostridium botulinum, UniProt A7GBG3 1-1278).
T3 sequence: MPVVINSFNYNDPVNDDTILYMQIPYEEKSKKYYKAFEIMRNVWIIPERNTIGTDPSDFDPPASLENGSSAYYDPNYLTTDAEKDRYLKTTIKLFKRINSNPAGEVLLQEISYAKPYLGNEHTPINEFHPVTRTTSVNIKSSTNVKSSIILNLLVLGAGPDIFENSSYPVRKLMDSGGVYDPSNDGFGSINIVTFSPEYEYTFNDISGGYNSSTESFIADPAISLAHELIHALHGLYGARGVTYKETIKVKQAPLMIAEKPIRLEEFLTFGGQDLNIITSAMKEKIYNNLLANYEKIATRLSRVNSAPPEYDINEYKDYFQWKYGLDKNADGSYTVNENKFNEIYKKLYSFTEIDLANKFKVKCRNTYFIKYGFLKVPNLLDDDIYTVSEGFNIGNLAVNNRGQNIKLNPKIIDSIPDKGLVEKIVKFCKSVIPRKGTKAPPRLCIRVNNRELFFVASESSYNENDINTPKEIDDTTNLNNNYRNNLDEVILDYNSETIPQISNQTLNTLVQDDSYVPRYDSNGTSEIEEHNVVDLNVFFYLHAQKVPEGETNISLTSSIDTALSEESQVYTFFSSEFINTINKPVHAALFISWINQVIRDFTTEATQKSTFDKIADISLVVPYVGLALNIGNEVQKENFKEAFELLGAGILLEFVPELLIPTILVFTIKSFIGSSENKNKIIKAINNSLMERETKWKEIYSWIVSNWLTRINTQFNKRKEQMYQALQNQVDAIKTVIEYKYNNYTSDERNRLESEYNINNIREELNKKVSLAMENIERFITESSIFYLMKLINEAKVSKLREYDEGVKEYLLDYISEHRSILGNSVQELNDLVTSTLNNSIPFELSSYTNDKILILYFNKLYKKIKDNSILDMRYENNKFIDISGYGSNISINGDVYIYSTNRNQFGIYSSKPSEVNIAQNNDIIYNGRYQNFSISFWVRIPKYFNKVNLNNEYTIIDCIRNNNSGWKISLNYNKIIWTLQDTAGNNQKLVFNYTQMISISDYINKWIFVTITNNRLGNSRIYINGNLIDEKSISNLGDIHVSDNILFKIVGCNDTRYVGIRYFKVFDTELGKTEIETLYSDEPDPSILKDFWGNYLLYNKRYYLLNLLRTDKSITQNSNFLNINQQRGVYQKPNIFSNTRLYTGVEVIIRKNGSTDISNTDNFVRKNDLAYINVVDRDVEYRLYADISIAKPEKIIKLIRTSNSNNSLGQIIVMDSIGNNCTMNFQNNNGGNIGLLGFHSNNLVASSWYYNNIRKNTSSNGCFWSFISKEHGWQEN
Description: yeast scFv FACS.

The target in test [5] is T4, BoNT/F 202F (Clostridium botulinum, UniProt P30996 1-1274).
T4 sequence: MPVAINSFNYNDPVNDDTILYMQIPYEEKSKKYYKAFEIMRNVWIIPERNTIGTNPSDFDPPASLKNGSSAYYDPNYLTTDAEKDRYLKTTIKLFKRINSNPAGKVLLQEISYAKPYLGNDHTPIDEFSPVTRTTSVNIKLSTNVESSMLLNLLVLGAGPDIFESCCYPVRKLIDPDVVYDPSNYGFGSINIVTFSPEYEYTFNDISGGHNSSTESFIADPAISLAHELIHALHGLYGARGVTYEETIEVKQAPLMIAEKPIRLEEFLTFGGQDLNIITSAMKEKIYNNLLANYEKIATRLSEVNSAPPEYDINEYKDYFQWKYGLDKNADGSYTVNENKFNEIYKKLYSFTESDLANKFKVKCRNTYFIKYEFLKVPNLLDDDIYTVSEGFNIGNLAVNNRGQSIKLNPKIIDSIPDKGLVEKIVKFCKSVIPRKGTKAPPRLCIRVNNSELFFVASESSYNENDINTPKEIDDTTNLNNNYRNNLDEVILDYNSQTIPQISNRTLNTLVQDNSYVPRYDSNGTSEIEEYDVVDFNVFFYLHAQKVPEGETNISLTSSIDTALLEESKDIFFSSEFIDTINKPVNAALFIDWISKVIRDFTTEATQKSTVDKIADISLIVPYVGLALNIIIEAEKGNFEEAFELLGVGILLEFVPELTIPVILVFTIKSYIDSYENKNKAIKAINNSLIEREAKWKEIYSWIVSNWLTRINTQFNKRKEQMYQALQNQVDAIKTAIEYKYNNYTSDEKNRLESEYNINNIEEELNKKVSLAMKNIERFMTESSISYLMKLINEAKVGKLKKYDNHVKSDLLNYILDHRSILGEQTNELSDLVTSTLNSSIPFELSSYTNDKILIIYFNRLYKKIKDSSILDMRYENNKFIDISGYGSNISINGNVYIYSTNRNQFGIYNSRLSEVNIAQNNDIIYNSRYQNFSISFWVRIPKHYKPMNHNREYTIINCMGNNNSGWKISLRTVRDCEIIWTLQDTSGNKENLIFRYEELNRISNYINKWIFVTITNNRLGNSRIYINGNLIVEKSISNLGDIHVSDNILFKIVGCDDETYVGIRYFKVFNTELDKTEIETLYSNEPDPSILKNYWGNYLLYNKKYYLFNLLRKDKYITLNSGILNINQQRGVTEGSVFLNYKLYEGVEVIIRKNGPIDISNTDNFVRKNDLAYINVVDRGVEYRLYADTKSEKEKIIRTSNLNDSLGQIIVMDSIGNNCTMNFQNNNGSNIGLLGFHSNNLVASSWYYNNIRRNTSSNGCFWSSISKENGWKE
Description: yeast scFv FACS.

In test [6] the target is T3, BoNT/F1 (proteolytic BoNT/F). As to the kind of experiment: yeast scFv FACS. The source holds these as a separate data set.
Test [7] concerns the target T5, BoNT/F6 (Clostridium botulinum, UniProt P30996 1-1274).
T5 sequence: T4 sequence
As to the kind of experiment: yeast scFv FACS.

Test [8] concerns the target T3, BoNT/F1 (proteolytic BoNT/F).
In test [9] the target is T1, BoNT/A1 holotoxin (Hall hyper).
Test [10] concerns the target T2, BoNT/A2 holotoxin (FRI-H1A2).

What is called Kd is the concentration at which binding is half-saturated.

Changes are numbered by the printed parent chain. Read-outs that look alike come from different tables or passages of the source. Where only a bound is given, the exact number is not on record here.

B1: ING2 IgG (antibody, V domains shown)
VH: QVQLVQSGAEVKKPGSSVKVSCKASGDTFNRNAIAWVRQAPGQGLEWMGRIIPNLRTTHYAQKFQGRVAITADKHTNTVFMELSSLRSEDTAVYYCARDPYYYSYMDVWGKGTTVTVSS
VL: not shown
Consider B1, for which the Kd in test [1] turned out to be 0.00957 nM; in [2] it was 0.00742 nM; in test [3] it was 85.7 nM.

B2: 28H2 scFv (scFv, V domains shown)
VH: QVQLQESGPGLVKPSQTVSLTCTVAGYSITNGNHWWNWIRQVSGSKLEWIGYITSSGSTDSNPSLKSRISITRDTSKNQLFLQLNSVTTEDIATYYCARSSNYFFHVLDYWGQGTSVTVSS
VL: DIVLTQTPAIMSASPGEKVTMTCSASSSVSYMHWFQQKPGTSPKLWIYSTSNLASGVPARFSGSGSGTSYSLTISRMEAEDAATYYCQQRSSYPPTFGGGTRLEIK
As to B2, the Kd in [4] and in test [6] was 1.55 nM each time. The binding result is “no binding” in test [5] and “no binding (tested: maximum toxin concentration tested)” in [7].

B3: 6A1M IgG (antibody, V domains shown)
VH: LQLKQSGPGLVKPSQSLSLTCSVTGYSITSGYYWYWIRQFPGNKLEWMGYISYDGSNNYNPSLKNRISITRDTSKNQFFLKLNSVTTEDTATYYCARNLGLWYFDVWGTGTPLTVSS
VL: EIVLTQSPAILSASPGEKVTMTCRASSSVRYMHWYQQKPGSSPKPWIYATSNLASGVPARFSGSGSGTSYSLTISRVEAEDAATYYCQQWSGNAPTFGGGTKLEIK
notes: IgG converted from scFv
With B3, the Kd in [1] is 0.00921 nM; in test [2] it was 0.00289 nM; in test [3], 1.38 nM.

B4: 4E17.2 scFv (scFv, V domains shown)
VH: EVQLVQSGGNLVQPGGSLRLSCAATGPIGSHWMTWVRQAPGQGLEWVANINLDGTEKFYVDSVKGRFTVSRDNRKSSVFLQMNNLRVDDTAVYYCARLQWGGYNGWLSPWGQGTLVTVSS
VL: DIEMTQSPPSLSASVGDRVSLTCRASEYIGTSLNWYQQKPGKAPKLLIYAASALHSGVPSRFSGSGSGTDFTLTISGLQPEDFATYYCQQANDLPLTFGGGTKLEIK
With B4, the Kd in test [4] was 0.39 nM; in test [8], below 1 nM; in [6], 0.39 nM. Moreover, in test [5], the binding result is given as “binds”.

B5: 4E17.1 (antibody, V domains shown)
VH: B4 VH with Q6R
VL: DIVMTQSPSSLSASVGDRVTISCRASQSIRHYVNWYQQKPGKAPKLLIYKASSLASGAPSRFSGSGSGTDFTLTISSLQPDDFATYYCQQSYSIPLTFGGGTKVEIKR
Take B5: the Kd in [9] was determined as 0.00183 nM; in test [10] it was 0.00798 nM.

B6: A9 (antibody, V domains shown)
VH: QVQLVQSGGGVVQPGRSLRLSCAASGFTFSSYGMHWVRQAPGKGLEWVSSISSSSSYIYYADSVKGRFTISRDNSKNTLYLQMNSLRAEDTAVYYCARGAVAGGSYGMDVWGQGTMVTVSS
VL: not shown
Take B6: the Kd in test [9] worked out at 0.0771 nM; in test [10] it was 0.223 nM.

These data come from patent US20220089784A1 (University of California, published 2022).
